Experimental data published in WO2018019380A1 (dated 2018).

T1: CEACAM1 (as used for the Kd / Kon / Koff values) (human, UniProt P13688 35-428, limits assumed)
T1 sequence (looked up): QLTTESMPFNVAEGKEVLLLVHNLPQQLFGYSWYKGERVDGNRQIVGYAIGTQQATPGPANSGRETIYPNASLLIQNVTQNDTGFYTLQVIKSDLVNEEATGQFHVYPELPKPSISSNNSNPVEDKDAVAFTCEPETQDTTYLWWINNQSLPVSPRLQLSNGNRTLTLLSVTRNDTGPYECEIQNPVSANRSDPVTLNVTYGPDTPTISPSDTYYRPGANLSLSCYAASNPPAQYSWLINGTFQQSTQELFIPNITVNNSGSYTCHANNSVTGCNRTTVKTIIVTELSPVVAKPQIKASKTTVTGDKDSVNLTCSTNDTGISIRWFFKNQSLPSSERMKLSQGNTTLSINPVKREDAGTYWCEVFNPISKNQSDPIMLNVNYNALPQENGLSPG


Biological target: T1, CEACAM1 (as used for the Kd / Kon / …)
Assay: method not stated

Row | Kd [nM] | Binder
1 | 26 | Anti-human CEACAM1 antibody (Clone 18-20) (antibody, V domains shown, Mouse monoclonal antibody from hybridoma 18-20; also called Antikörper 18-20; antibody 18-20) VH: KPGETVKISCKASGYTFTVYGMNWVKQAPGKDLKWMGWINTYTGEPTYADDFKGRFAFSLETSASTAYLQINNLKNEDMATYFCARKAFYRYDGGMDYWGQGTSVTVSS VL: SSLSASLGGKVTITCKASQDINKFLAWYQHKPGKGPRLLIHYTSTLQPGIPSRFSGSGSGRDYSFSISNLEPEDIATYYCLQYDNLYTFGGGTKLEIK
2 | 10 | Anti-human CEACAM1 antibody (Clone B3-17) (antibody, V domains shown, Mouse monoclonal antibody from hybridoma B3-17; also called Antikörper B3-17; antibody B3-17) VH: GPELVKPGTSVKMSCKASGYTFTTYVMHWVQQKPGQGLDWIGFFNPYNDGTKYNEKFKGKATLTSDKSSSTAYMELSSLTSEDSAVYYCARWAYDGSYAYWGQGTTLTVSS VL: SYLSVFLGGRVTITCKASDHINNWLAWYQQKPGNAPRLLISGATSLETGVPSRFSGSGSGKDYTLSIISLQTEDVATYYCQQYWRTPFTFGSGTKLEIK
3 | 23 | Anti-human CEACAM1 antibody (Clone 6G5J) (antibody, V domains shown, Mouse monoclonal antibody from hybridoma 6G5J; also called Antikörper 6G5J; antibody 6G5J) VH: KPGETVKISCKTSGYIFRNYGMKWVKQAPGKGLKWMGWINTYTGEPTYADDFKGRFAFSLETSASTAYLQINNLKNEDMATYFCARRGMITTSNYALDNWGQGTSVTVSS VL: SSLSASLGDRVTISCRASQDISNYLNWYQQKPDGTIKLLIYYTSKLHSGVPSRFSGSGSGTDYSLTISNLDQEDIATYFCQQGNTLPWTFGGGTKLEIK
